Results published in patent US20190092852A1 (Genentech, published 2019).
“And” between values parts separate entries of the source, which are not always exact repeats. Equal entries are not always repeated. Values belong to the binder of their own block, whether it stands above or below them.

Legend:
[1] = molecular target: T1, cyno IL-33 (construct not stated) (cynomolgus monkey, UniProt A0A2K5W3I1 112-269); test: SPR Biacore
T1 construct: also called cynomolgus IL-33; cyno IL-33 (Genentech)
T1 sequence: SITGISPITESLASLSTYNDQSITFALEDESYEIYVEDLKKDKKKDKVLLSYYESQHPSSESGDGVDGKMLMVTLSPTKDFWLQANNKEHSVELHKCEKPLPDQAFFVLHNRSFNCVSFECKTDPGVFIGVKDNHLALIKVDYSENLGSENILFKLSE

[2] = molecular target: T2, human IL-33 (Genentech, huIL33.his) (human, UniProt O95760 112-270); test: SPR Biacore
T2 sequence (looked up): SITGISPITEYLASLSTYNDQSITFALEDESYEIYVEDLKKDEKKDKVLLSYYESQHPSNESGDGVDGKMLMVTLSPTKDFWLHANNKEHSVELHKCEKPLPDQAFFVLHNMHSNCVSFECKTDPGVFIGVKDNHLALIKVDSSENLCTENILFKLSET

[3] = molecular target: T3, human IL-33 (cell-based blocking assay of Example 2) (human, UniProt O95760 112-270); test: cell-based or functional assay
T3 sequence (looked up): T2 sequence (looked up)

[4] = molecular target: T4, cyno IL-33 (cell-based blocking assay of Example 2) (cynomolgus monkey, UniProt A0A2K5W3I1 95-269); test: cell-based or functional assay
T4 sequence: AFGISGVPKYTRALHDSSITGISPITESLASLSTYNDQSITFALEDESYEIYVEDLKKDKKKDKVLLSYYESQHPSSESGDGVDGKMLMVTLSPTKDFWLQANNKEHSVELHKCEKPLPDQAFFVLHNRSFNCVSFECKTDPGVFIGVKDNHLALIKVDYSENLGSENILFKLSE

[5] = molecular target: T3, human IL-33 (cell-based blocking assay …); test: cell-based or functional assay; remark: listed apart in the source
[6] = molecular target: T4, cyno IL-33 (cell-based blocking assay …); test: cell-based or functional assay; remark: listed apart in the source

Kd [1]: 0.07 nM
Kd [2]: ≤ 0.007 nM
IC50 (HEK-BLUE SEAP reporter, IL-33 blocking) [3]: 3.9 pM
IC90 (HEK-BLUE SEAP reporter, IL-33 blocking) [3]: 18.2 pM and 0.0027 µg/mL
IC50 (HEK-BLUE SEAP reporter, IL-33 blocking) [4]: 142 pM
IC90 (HEK-BLUE SEAP reporter, IL-33 blocking) [4]: 1290 pM and 0.193 µg/mL
Cell assay (hu) IC90 [5]: 0.002 µg/mL and 0.013 nM
Cell assay (cy) IC90 [6]: 0.193 µg/mL and 1.27 nM
B1: 10C12 (antibody, V domains shown)
VH: DVNLVESGGGSVKPGGSLKLSCVASGFTFSSFSMSWVRQTPEKRLEWVATISGGKTFTDYVDSVKGRFTISRDDAKNTLYLQMSSLESEDTAMYYCTRANYGNWFFEVWGAGTTVAVSS
VL: DIVLTQSPGFLVVSLGQRATISCRASESVAKYGLSLLNWFQQKPGQPPKLLIFAASNRGSGVPARFSGSGSGTDFSLNIHPMEEDDTAMYFCQQSKEVPFTFGSGTKLEIK
notes: Murine hybridoma clone from IL33 KO mouse

Kd [1]: 0.09 nM
Kd [2]: 0.06 nM
IC50 (HEK-BLUE SEAP reporter, IL-33 blocking) [3]: 5.3 pM
IC90 (HEK-BLUE SEAP reporter, IL-33 blocking) [3]: 31 pM and 0.0047 µg/mL
IC50 (HEK-BLUE SEAP reporter, IL-33 blocking) [4]: 17.4 pM
IC90 (HEK-BLUE SEAP reporter, IL-33 blocking) [4]: 271 pM and 0.0407 µg/mL
Cell assay (hu) IC90 [5]: 0.003 µg/mL and 0.02 nM
Cell assay (cy) IC90 [6]: 0.041 µg/mL and 0.27 nM
B2: 10H2 (antibody, V domains shown)
VH: EVKLEESGGGLVQPGGSMKLSCVASGFTFSNYWMNWVRQSPEKGLEWMAEITLKFNNYSTHYAESVKGRFSISRDDSKSTVYLQMNNLRAEDTGIYYCARRNYGDWYINVWGAGTTVTVSS
VL: DIVLTQSPTSLAVSLGQRATISCRASESVDKFGMSFLNWFQQKPGQPPKLLIFVASSQGSGVPARFSGSGSGTDFSLNIHPVEEDDTAMYFCQQSKDIPYTFGGGTKLEIK
notes: Murine hybridoma clone (Balb/C)

Kd [1]: 0.91 nM
Kd [2]: 0.07 nM
Cell assay (hu) IC90 [5]: 0.011 µg/mL and 0.73 nM
Cell assay (cy) IC90 [6]: > 1.5 µg/mL and > 9.9 nM
B3: 9F6 (antibody, V domains shown)
VH: QVQLQQSGNDLVKPGASVKLSCKASGYTFTSYWINWIKQRPGQGLEWIGRIAPGSGFISYNELFKDKATLTVDTSSSTAYIQLGSLSSEDSAVYFCAREFYYGSFYGGFAYWGQGTLVTVSA
VL: DIQMNQSPSSLSASLGDTITITCHASQNIHVWLSWYQQKPGNIPKLLIYKASTLHTGVPSRFNGSGSGTGFTLTISSLQPEDIATYYCQQGQSSPLTFGAGTKLEVK
notes: as for B2
